From patent publication US20240209088A1 come the findings set out here.

“And” between values parts separate entries of the source, which are not always exact repeats. Identical values can stand only once.

Assay [1] addresses full-length human CD4 on cells (human) (UniProt P01730). Put plainly: flow cytometry of human PBMCs, donor 1, with anti-CD3-FITC; c (nM) ~1. (In flow cytometry, cells or beads pass a laser one at a time.)
Assay [2] shares this target. The assay can be described thus: flow cytometry of human PBMCs, donor 2, with anti-CD3-FITC; c (nM) ~1.
The target is the same in assay [3]. Put plainly: flow cytometry of human PBMCs, donor 3, with anti-CD3-FITC; c (nM) ~1.
Assay [4] has the same target. The assay can be described thus: flow cytometry of human PBMCs, donor 1, labeled anti-CD4 antibody with anti-CD3-FITC.
Assay [5] shares this target. Put plainly: flow cytometry of human PBMCs, donor 2, labeled anti-CD4 antibody with anti-CD3-FITC.
For assay [6] the target is unchanged. The assay can be described thus: flow cytometry of human PBMCs, donor 3, labeled anti-CD4 antibody with anti-CD3-FITC.
The target is the same in assay [7]. Put plainly: flow cytometry of human PBMCs, donor 1, labeled Nb with anti-CD3-FITC.
For assay [8] the target is unchanged. Described as above. This is another data set of the same source.
Assay [9] shares this target. The assay can be described thus: flow cytometry of human PBMCs, donor 2, labeled Nb with anti-CD3-FITC.
For assay [10] the target is unchanged. The assay can be described thus: flow cytometry of human PBMCs, donor 3, labeled Nb with anti-CD3-FITC.
Assay [11] shares this target. Put plainly: flow cytometry of human PBMCs, donor 1, labeled Nb with anti-CD3-FITC; the same panel in Fig. 8A prints 0.62.
Assay [12] has the same target. Put plainly: flow cytometry of human PBMCs, donor 1, labeled Nb with anti-CD3-FITC; the same panel in Fig. 3A prints 0,82.

anti-human CD4 antibody RPA-T4: the Frequency CD3+ CD4+ (%) in [1] amounted to 32.7%; in assay [2], 26.2%; in assay [3], 22.8%. Besides, the percent of cells in the CD3+ CD4+ quadrant in [4] came to 33.7%; in assay [5], 27%; in assay [6] it was 24.3%. Also, the percent of cells in the CD3- CD4+ quadrant came to 21.7% in assay [4], 22.4% in assay [5] and 43.4% in [6].
Regarding “non-specific fluorescently labeled GFP-binding Nb (VHH)”, the percent of cells in the CD3+ CD4+ quadrant was 1.39% in [7]; 0.13% in assay [8]; 0.03% and 0.26% in [9]; 0.03% and 0.95% in assay [10]. The percent of cells in the CD3- CD4+ quadrant in [9] was 0.14% and 0.36%; in [10] it was 0.16% and 1.36%; in [11] it was 0.82%; in assay [12] it was 0.62%.
